From the supplement of paper PMC7877785
± gives the uncertainty stated by the source.

Assay: self-splicing fitness, log relative to wild type (ln ratio); higher = more splicing; Tetrahymena group I intron in knt gene, E. coli kanamycin selection, DiMSum; sequences stand for … in CUCUCU…GGAGGGAAAAGUUAUCAGGCAUGCACCUGGUAGCUAGUCUUUAAACCAAUAGAUUGCAUCGGUUUAAAAGGCAAGACCGUCAAAUUGCGGGAAAGGGGUCAACAGCCGUUCAGUACCAAGUCUCAGGGGAAACUUUGAGAUGGCCUUGCAAAGGGUAUGGUAAUAAGCUGACGGACAUGGUCCUAACCACGCAGCCAAGUCCUAAGUCAACAGAUCUUCUGUUGAUAUGGAUGCAGUUCACAGACUAAAUGUCGGUCGGGGAAGAUGUAUUCUUCUCAUAAGAUAUAGUCGGACCUCUCCUUAAUGGGAGCUAGCGGAUGAAGUGAUGCAACACUGGAGCCGCUGGGAACUAAUUUGUAUGCGAAAGUAUAUUGAUUAGUUUUGGAGUACUCGUGGUCG
How it was run: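 Six replicate transformations of E. coli BL21(DE3) with a pET-22b(+) library were grown overnight at 37°C or 30°C. The library randomised all eight P1ex-region intron nucleotides, the intron lying in the knt kanamycin-resistance gene, and plates were LB agar with or without 25 μg/mL kanamycin plus 100 μg/mL carbenicillin, 50 μM IPTG and 0.2% rhamnose. Pooled colonies were amplicon-sequenced on an Illumina HiSeq 2500, and fitness is the DiMSum error-weighted combination of wild-type-normalised replicate fold changes, kanamycin versus none.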

Sequence | self-splicing fitness (ln) (30 °C) | self-splicing fitness (ln) (37 °C)
AAGAAGCAAUAUUACGAUAA | -1.11 ± 0.12 | -1.07 ± 0.15
GGACAGCAAUAUUACGACGG | -2.69 ± 0.28 | -2.16 ± 0.36
ACAAAGCAAUAUUACGCCCA | -1.24 ± 0.11 | -0.225 ± 0.13
UGAGAGCAAUAUUACGAUCU | -2.49 ± 0.45 | -1.1 ± 0.45
GUCAAGCAAUAUUACGCCCA | -1.4 ± 0.15 | -1.11 ± 0.14
UUCAAGCAAUAUUACGUGCC | -0.891 ± 0.15 | -0.528 ± 0.17
AAAAAGCAAUAUUACGUCAG | -2.75 ± 0.15 | -1.14 ± 0.13
UGAUAGCAAUAUUACGUCGG | -1.4 ± 0.12 | -0.72 ± 0.12
CGUCAGCAAUAUUACGGCCU | -0.913 ± 0.17 | -1.79 ± 0.29
GUAUAGCAAUAUUACGUCAG | -3.96 ± 0.35 | -1.08 ± 0.18
ACAAAGCAAUAUUACGCUCU | -1.09 ± 0.063 | -0.102 ± 0.095
AGCUAGCAAUAUUACGGUUG | -1.95 ± 0.075 | -1.37 ± 0.11
UAUUAGCAAUAUUACGCUGC | -2.92 ± 0.27 | -2.59 ± 0.49
CGGAAGCAAUAUUACGGGAU | -3.67 ± 0.42 | -2.48 ± 0.25
GUUCAGCAAUAUUACGUCCG | 0.0188 ± 0.43 | –
AUUGAGCAAUAUUACGGGAG | -3.67 ± 0.26 | -2.33 ± 0.27
CACUAGCAAUAUUACGAGGA | -4.01 ± 0.31 | -1.49 ± 0.15
AGAAAGCAAUAUUACGGAUA | -2.15 ± 0.15 | -1.77 ± 0.15
CUAUAGCAAUAUUACGGAGU | -4.03 ± 0.28 | -2.86 ± 0.26
GCCGAGCAAUAUUACGAGGA | -1.32 ± 0.11 | -0.747 ± 0.1
ACAAAGCAAUAUUACGACGC | -0.112 ± 0.044 | 0.422 ± 0.066
GUGGAGCAAUAUUACGUCGG | -3.08 ± 0.22 | -2.35 ± 0.2
AGAAAGCAAUAUUACGGAUG | -2.93 ± 0.14 | -2.04 ± 0.14
GACCAGCAAUAUUACGUGUG | -0.363 ± 0.047 | -0.452 ± 0.058
AGUUAGCAAUAUUACGGUCA | -1.08 ± 0.077 | -0.46 ± 0.085
AACAAGCAAUAUUACGAAGC | -3.15 ± 0.27 | -2.83 ± 0.38
UAUCAGCAAUAUUACGAGUA | -0.337 ± 0.079 | -0.301 ± 0.088

Sequence | self-splicing fitness (ln) (30 °C) | self-splicing fitness (ln) (37 °C)
GCUCAGCAAUAUUACGUUUU | -1.13 ± 0.056 | 0.00509 ± 0.068
GCACAGCAAUAUUACGAAGU | -1.3 ± 0.11 | -0.941 ± 0.14
CGUCAGCAAUAUUACGACUG | -0.935 ± 0.11 | 0.699 ± 0.13
AGCCAGCAAUAUUACGAAUC | – | -1.94 ± 0.39
CUGGAGCAAUAUUACGCGAC | -0.944 ± 0.27 | -1.84 ± 0.36
UCCCAGCAAUAUUACGUUGG | -3.37 ± 0.12 | -1.5 ± 0.13
GAGCAGCAAUAUUACGCUCC | -2.25 ± 0.35 | -0.34 ± 0.38
GAGUAGCAAUAUUACGUAAG | -2.82 ± 0.14 | 0.0773 ± 0.14
AAGUAGCAAUAUUACGCUUU | -3.18 ± 0.24 | -3.19 ± 0.47
UAUUAGCAAUAUUACGGACA | -1.16 ± 0.2 | 0.703 ± 0.28
UACUAGCAAUAUUACGGGGC | -3.02 ± 0.3 | -2.5 ± 0.44
AGGCAGCAAUAUUACGUCCC | – | 0.266 ± 0.3
UGGAAGCAAUAUUACGGAAG | -1.69 ± 0.12 | -1.46 ± 0.17
UUACAGCAAUAUUACGGAGU | -4.03 ± 0.29 | -2.7 ± 0.22
GCAAAGCAAUAUUACGCAUA | -1.86 ± 0.14 | -1.43 ± 0.18
CUUGAGCAAUAUUACGAGCU | -1.6 ± 0.46 | –
UAACAGCAAUAUUACGAGUA | -0.835 ± 0.099 | 0.134 ± 0.099
GAAGAGCAAUAUUACGGGUU | -3.11 ± 0.2 | -2.22 ± 0.2
AGGGAGCAAUAUUACGAUGA | -3.54 ± 0.37 | -2.7 ± 0.41
AGAGAGCAAUAUUACGCGAU | – | -2.82 ± 0.43
AUUAAGCAAUAUUACGCCCC | -1.21 ± 0.31 | 0.0189 ± 0.48
AUUGAGCAAUAUUACGCUAC | -3.69 ± 0.37 | –
AUCAAGCAAUAUUACGCGGU | -4.07 ± 0.19 | -2.03 ± 0.16
ACGAAGCAAUAUUACGAUUC | – | -2.8 ± 0.33
UAUGAGCAAUAUUACGUCUU | -2.71 ± 0.27 | -1.93 ± 0.23
AAUGAGCAAUAUUACGUCUA | -2.27 ± 0.24 | -1.59 ± 0.18
GAGCAGCAAUAUUACGCGGU | -3.17 ± 0.27 | -0.69 ± 0.22

Sequence | self-splicing fitness (ln) (30 °C) | self-splicing fitness (ln) (37 °C)
CGCCAGCAAUAUUACGGCGG | -2.23 ± 0.13 | -1.83 ± 0.17
CAGCAGCAAUAUUACGAUGA | -2.7 ± 0.21 | -1.31 ± 0.14
UACGAGCAAUAUUACGAAGA | -2.13 ± 0.37 | –
CGGAAGCAAUAUUACGGCGU | -1.96 ± 0.16 | -1.04 ± 0.22
AGCUAGCAAUAUUACGAAUA | -3.3 ± 0.27 | -2.35 ± 0.24
GUUGAGCAAUAUUACGAACU | – | -1.61 ± 0.27
UGCCAGCAAUAUUACGGACG | -0.337 ± 0.06 | -0.0244 ± 0.076
UCAUAGCAAUAUUACGACUA | -2.82 ± 0.29 | -1.78 ± 0.24
UUAUAGCAAUAUUACGUAUG | -1.03 ± 0.12 | -0.187 ± 0.15
GUAUAGCAAUAUUACGAAUC | -2.37 ± 0.22 | -0.29 ± 0.17
AGAGAGCAAUAUUACGUUUA | – | -2.08 ± 0.33
GAUAAGCAAUAUUACGGUAA | -2.64 ± 0.22 | -1.46 ± 0.15
CGGGAGCAAUAUUACGGAGC | -2.32 ± 0.37 | -0.632 ± 0.25
AUCUAGCAAUAUUACGCACG | -1.37 ± 0.15 | -0.353 ± 0.14
ACAAAGCAAUAUUACGUCAU | -3.08 ± 0.12 | -2.4 ± 0.14
CGUGAGCAAUAUUACGGAAU | – | -2.84 ± 0.38
GCGCAGCAAUAUUACGUUGA | -0.0364 ± 0.078 | -0.504 ± 0.085
AAGGAGCAAUAUUACGGUUU | -2.45 ± 0.12 | -1.07 ± 0.11
CCACAGCAAUAUUACGCCGC | -3.12 ± 0.21 | -3.49 ± 0.27
CCAAAGCAAUAUUACGGGUC | -4.39 ± 0.23 | -3.1 ± 0.22
UACGAGCAAUAUUACGCAUG | -2.37 ± 0.25 | -2.25 ± 0.24
UCCCAGCAAUAUUACGUCAU | -4.04 ± 0.2 | -2.09 ± 0.18
UACGAGCAAUAUUACGGAUU | -2.38 ± 0.33 | –
CGAUAGCAAUAUUACGCCUC | -2.84 ± 0.24 | -1.74 ± 0.26
CAAGAGCAAUAUUACGUAUG | -3.02 ± 0.13 | -1.36 ± 0.15
